{"source": "paper PMC6335408", "key": {"[1]": {"biological_target": "USP7 catalytic domain (CD)"}, "[2]": {"biological_target": "USP7 CD12345^ΔC (UniProt Q93009)"}, "[3]": {"biological_target": "USP7 catalytic domain CD (Homo sapiens) (UniProt Q93009)", "assay": "activation assay", "conditions": "cited from earlier work"}, "[4]": {"biological_target": "full-length (FL) USP7 (UniProt Q93009)"}, "[5]": {"biological_target": "USP7 CD12345 (catalytic domain with Ubl domains 1-5 and tail, no TRAF domain) (UniProt Q93009)"}, "[6]": {"biological_target": "USP7-TCD (TRAF domain and catalytic domain, lacks all Ubl domains)"}, "[7]": {"biological_target": "USP7 CD45 (catalytic domain linked to Ubl45)", "assay": "SEC-MALS; Superdex 200 in 20 mM HEPES pH 7.5, 100 mM NaCl, 1 mM DTT, in-line MALLS; CD45 100 µL of 45 µM, FL 80 µL of 20 µM loaded"}, "[8]": {"biological_target": "USP7 catalytic domain (CD)", "assay": "covalent suicide-probe reaction (preparative); 120 µM CD (or TCD) incubated overnight with an excess of probe and Ubl45 (both 150 µM) under dialysis against 20 mM HEPES pH 7.5, 50 mM NaCl, 2 mM DTT"}, "[9]": {"biological_target": "GST-Ubl45 (immobilised) (UniProt Q93009)", "assay": "SPR; around 50 units of Ubl45 immobilised, titration range of p53Ub-bound TCD flowed over; equilibrium fit"}, "[10]": {"biological_target": "TAMRA-labelled p53 peptide (UniProt P04637)", "assay": "fluorescence polarisation; 25 nM TAMRA-p53 peptide with a dilution series of USP7 constructs; plate reader; 20 mM HEPES pH 7.5, 100 mM NaCl, 1 mM DTT, 1 mM EDTA, 0.05% Tween-20"}, "[11]": {"biological_target": "USP7-TCD (TRAF domain and catalytic domain, lacks all Ubl domains)", "assay": "covalent suicide-probe reaction (preparative); 120 µM CD (or TCD) incubated overnight with an excess of probe and Ubl45 (both 150 µM) under dialysis against 20 mM HEPES pH 7.5, 50 mM NaCl, 2 mM DTT"}, "[12]": {"biological_target": "USP7 C-terminal tail peptide (residues 1083-1102), biotinylated (UniProt Q93009)", "assay": "SPR; N-terminally biotinylated C-terminal tail peptide immobilised (~30 RU) on SA chip, CD or CDUb flowed over; Biacore T200, 25 °C; same running buffer"}, "[13]": {"biological_target": "GST-Ubl45 (immobilised) (UniProt Q93009)", "assay": "SPR; GST-Ubl45 or GST-Ubl45ΔC captured by anti-GST antibody on CM5 chip, covalent CDUb flowed over; Biacore T200, 25 °C; same running buffer; equilibrium fit and EvilFit"}}, "data": [{"substance": "USP7 Ubl45 (last two Ubl domains with the activating C-terminal tail) (from UniProt Q93009 890-1102) (domain or fragment)", "values": [{"measurement": "apparent KD from in trans activation of CD (20 nM) DUB activity on UbRho, titration of Ubl45", "setting": "[1]", "result": 110, "unit": "µM"}]}, {"substance": "USP7 CD12345^C223A (from UniProt Q93009 1-1102) (domain or fragment)", "values": [{"measurement": "apparent KD (K (D,app)) from activation of CD12345^ΔC (20 nM) DUB activity on UbRho, titration of CD12345^C223A", "setting": "[2]", "result": 60, "unit": "µM"}]}, {"substance": "USP7 C-terminal peptide C-terminal tail (from UniProt Q93009)", "values": [{"measurement": "Kd", "setting": "[3]", "result": 1000, "unit": "µM"}]}, {"substance": "p53Ubinh (non-hydrolysable, triazole-linked ubiquitinated p53 peptide) (from UniProt P04637 357-389; P0CG48 1-76)", "values": [{"measurement": "IC50 of inhibition of UbRho hydrolysis by p53Ubinh (FL 0.35 nM, UbRho 0.4 µM)", "setting": "[4]", "result": 0.016, "unit": "µM"}, {"measurement": "IC50 of inhibition of UbRho hydrolysis by p53Ubinh (CD12345 0.35 nM): fold by which the IC50 of FL is better than that of CD12345", "setting": "[5]", "result": 60, "unit": "fold"}, {"measurement": "IC50 of inhibition of UbRho hydrolysis by p53Ubinh (TCD 200 nM): fold by which the IC50 of FL is better than that of TCD", "setting": "[6]", "result": 60, "unit": "fold"}]}, {"substance": "USP7 CD45 (catalytic domain linked to Ubl45) (domain or fragment)", "values": [{"measurement": "stoichiometry N", "setting": "[7]", "result": 2}]}, {"substance": "ubiquitin-propargyl (Ub-PA) suicide probe (from UniProt P0CG48 1-76)", "values": [{"measurement": "percent of CD reacted with the probe", "setting": "[8]", "result": 80, "unit": "%"}]}, {"substance": "TCD-p53Ub (USP7-TCD covalently bound to the p53UbVA probe) (from UniProt P04637 357-389; P0CG48 1-76) (complex)", "values": [{"measurement": "Kd", "setting": "[9]", "result": 2.9, "unit": "µM"}]}, {"substance": "full-length (FL) USP7 (from UniProt Q93009 1-1102) (enzyme)", "values": [{"measurement": "Kd", "setting": "[10]", "result": 0.16, "unit": "µM"}]}, {"substance": "p53UbVA (covalently binding, vinylamide-linked ubiquitinated p53 peptide, res. 357-389) (from UniProt P04637 357-389; P0CG48 1-76)", "values": [{"measurement": "percent reacted with the probe", "setting": "[11]", "result": 100, "unit": "%"}]}, {"substance": "CDUb (USP7 catalytic domain covalently coupled to ubiquitin through Ub-PA) (from UniProt P0CG48 1-76) (complex)", "values": [{"measurement": "Kd", "setting": "[12]", "result": 2.6, "unit": "µM"}, {"measurement": "Kd", "setting": "[13]", "result": 0.59, "unit": "µM"}, {"measurement": "koff", "setting": "[13]", "result": 0.8, "unit": "s⁻¹"}]}]}
